Laboratory results: paper PMC8318918

Columns and labels:
[1] = target: His-tagged XRCC1, insect-cell expressed (human) (UniProt P18887); assay: co-purification after co-expression
LigIII_(170–755) (human) = assay: SEC-MALS
[2] = target: LigIIIα co-expressed with His-tagged XRCC1 and TDP1 in insect cells (human); assay: co-purification after co-expression
[3] = target: His-tagged LigIIIα (full-length DNA ligase IIIα), co-expressed with TDP1 in insect cells (human); assay: co-purification after co-expression
[4] = target: His-tagged LigIIIβ full length (1–846) (human); assay: SPR

Sequence of UniProt P18887 (P18887 whole entry): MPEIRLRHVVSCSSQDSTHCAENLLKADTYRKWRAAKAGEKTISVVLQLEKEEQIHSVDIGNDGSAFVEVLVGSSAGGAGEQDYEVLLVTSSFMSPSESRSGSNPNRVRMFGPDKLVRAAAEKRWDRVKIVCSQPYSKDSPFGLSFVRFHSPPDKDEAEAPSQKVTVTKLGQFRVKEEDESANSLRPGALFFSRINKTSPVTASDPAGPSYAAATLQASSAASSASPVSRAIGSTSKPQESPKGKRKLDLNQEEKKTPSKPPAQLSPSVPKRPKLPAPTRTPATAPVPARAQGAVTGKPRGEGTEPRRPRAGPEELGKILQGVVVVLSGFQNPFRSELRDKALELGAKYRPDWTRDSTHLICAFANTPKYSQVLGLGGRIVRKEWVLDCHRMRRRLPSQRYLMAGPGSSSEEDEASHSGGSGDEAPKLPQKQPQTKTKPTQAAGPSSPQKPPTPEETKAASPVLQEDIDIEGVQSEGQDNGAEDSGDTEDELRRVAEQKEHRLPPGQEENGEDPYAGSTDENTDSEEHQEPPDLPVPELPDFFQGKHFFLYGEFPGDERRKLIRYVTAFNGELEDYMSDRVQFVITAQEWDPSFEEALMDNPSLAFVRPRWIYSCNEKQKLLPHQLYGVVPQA

Substance	stoichiometry N [1]	stoichiometry N (LigIII_(170–755) (human))	stoichiometry N [2]	stoichiometry N [3]	Kd [4] [nM]
LigIIIα co-expressed with His-tagged XRCC1 and TDP1 in insect cells (enzyme)	1	–	–	–	–
Flag-tagged TDP1 (tyrosyl DNA phosphodiesterase 1), insect-cell expressed, phosphorylated (from UniProt Q9NUW8 1-608) (enzyme)	–	1	1	1	5.1
TDP1-S81E, insect-cell expressed, phosphorylated (from UniProt Q9NUW8 1-608) (enzyme)	–	–	–	–	8.8
TDP1-S81A, insect-cell expressed, phosphorylated (from UniProt Q9NUW8 1-608) (enzyme)	–	–	–	–	5.3
